Experimental data taken from article PMC9200065.

Target: T1, MBP-GLD-1(135-336) WT (C. elegans, UniProt Q17339 135-336)
T1 sequence: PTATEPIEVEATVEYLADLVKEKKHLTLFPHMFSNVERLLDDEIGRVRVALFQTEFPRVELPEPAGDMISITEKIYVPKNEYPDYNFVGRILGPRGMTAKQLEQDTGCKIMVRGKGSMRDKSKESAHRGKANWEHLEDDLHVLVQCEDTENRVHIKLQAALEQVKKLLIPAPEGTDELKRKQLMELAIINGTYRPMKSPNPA
Test: EMSA

**Q.** Does UUUUUCUUAUUCUAGACUAAUAUUGUAAGCU (ssRNA) [glp-1 3'UTR fragment] bind?
**A.** binds
